# Reference: patent US20140093973A1 (BOARD OF REGENTS OF THE UNIVERSITY OF OKLAHOMA, published 2014)
# Where two headings read alike, the source gives them in different places. Ends that are not written are not given here.
# Assays:
# [1] = biological target: T1, soluble HLA-B*4001 (human); experiment: FP screen
# T1 construct: Member of the panel of 53 single-specificity sHLA
# [2] = biological target: T2, soluble HLA-A*2301 (human); experiment: FP screen
# T2 construct: Member of the panel of 53 single-specificity sHLA
# [3] = biological target: T3, soluble HLA-A*6801 (sHLA-A*6801) (human); experiment: FP screen
# T3 construct: Recombinant soluble class I with endogenous peptides, made as m1
# [4] = biological target: T4, soluble HLA-B*2705 (sHLA-B*2705) (human); experiment: FP screen
# T4 construct: Recombinant soluble class I with endogenous peptides, made as m1; negative control
# [5] = biological target: T5, soluble HLA-A*6901 (sHLA-A*6901) (human); experiment: FP screen
# T5 construct: Recombinant soluble class I with endogenous peptides, made as m1
# [6] = biological target: T6, soluble HLA-B*1801 (human); experiment: FP screen
# T6 construct: Member of the panel of 53 single-specificity sHLA
# [7] = biological target: T7, soluble HLA-A*1102 (sHLA-A*1102) (human, UniProt P04439 25-308; P61769 21-119); experiment: FP screen
# T7 construct: Recombinant soluble class I with endogenous peptides, made as m1
# [8] = biological target: T8, soluble HLA-A*2402 (human); experiment: FP screen
# T8 construct: Member of the panel of 53 single-specificity sHLA
# [9] = biological target: T9, soluble HLA-A*3002 (human); experiment: FP screen
# T9 construct: Member of the panel of 53 single-specificity sHLA
# [10] = biological target: T10, soluble HLA-B*4501 (human); experiment: FP screen
# T10 construct: Member of the panel of 53 single-specificity sHLA
# [11] = biological target: T11, soluble HLA-B*1302 (human); experiment: FP screen
# T11 construct: Member of the panel of 53 single-specificity sHLA
# [12] = biological target: T12, soluble HLA-B*4402 (human); experiment: FP screen
# T12 construct: Member of the panel of 53 single-specificity sHLA
# [13] = biological target: soluble HLA-A*0201 (sHLA-A*0201) (human); experiment: FP screen
# [14] = biological target: T13, soluble HLA-B*4002 (human); experiment: FP screen
# T13 construct: Member of the panel of 53 single-specificity sHLA
# [15] = biological target: T14, soluble HLA-A*6601 (human); experiment: FP screen
# T14 construct: Member of the panel of 53 single-specificity sHLA
# [16] = biological target: T15, soluble HLA-B*1501 (human); experiment: FP screen
# T15 construct: Member of the panel of 53 single-specificity sHLA
# [17] = biological target: T16, soluble HLA-A*0301 (human); experiment: FP screen
# T16 construct: Member of the panel of 53 single-specificity sHLA
# [18] = biological target: T17, soluble HLA-B*1512 (human); experiment: FP screen
# T17 construct: Member of the panel of 53 single-specificity sHLA
# [19] = biological target: T18, soluble HLA-A*0101 (human); experiment: FP screen of 53 sHLA with FITC-peptide
# T18 construct: Member of the panel of 53 single-specificity sHLA
# [20] = biological target: T19, soluble HLA-A*2902 (human); experiment: FP screen of 53 sHLA with FITC-peptide
# T19 construct: Member of the panel of 53 single-specificity sHLA
# [21] = biological target: T1, soluble HLA-B*4001; experiment: FP screen; remark: listed apart in the source
# [22] = biological target: T2, soluble HLA-A*2301; experiment: FP screen; remark: listed apart in the source
# [23] = biological target: T18, soluble HLA-A*0101; experiment: FP screen
# [24] = biological target: T4, soluble HLA-B*2705 (sHLA-B*2705); experiment: FP screen; remark: listed apart in the source
# [25] = biological target: T5, soluble HLA-A*6901 (sHLA-A*6901); experiment: FP screen; remark: listed apart in the source
# [26] = biological target: T6, soluble HLA-B*1801; experiment: FP screen; remark: listed apart in the source
# [27] = biological target: T8, soluble HLA-A*2402; experiment: FP screen; remark: listed apart in the source
# [28] = biological target: T9, soluble HLA-A*3002; experiment: FP screen; remark: listed apart in the source
# [29] = biological target: T10, soluble HLA-B*4501; experiment: FP screen; remark: listed apart in the source
# [30] = biological target: T20, soluble HLA-A*2601 (human); experiment: FP screen
# T20 construct: Member of the panel of 53 single-specificity sHLA
# [31] = biological target: T21, soluble HLA-A*4301 (sHLA-A*4301) (human); experiment: FP screen
# T21 construct: Recombinant soluble class I with endogenous peptides, made as m1
# [32] = biological target: T11, soluble HLA-B*1302; experiment: FP screen; remark: listed apart in the source
# [33] = biological target: T12, soluble HLA-B*4402; experiment: FP screen; remark: listed apart in the source
# [34] = biological target: soluble HLA-A*0201 (sHLA-A*0201) (human); experiment: FP screen; remark: listed apart in the source
# [35] = biological target: T13, soluble HLA-B*4002; experiment: FP screen; remark: listed apart in the source
# [36] = biological target: T14, soluble HLA-A*6601; experiment: FP screen; remark: listed apart in the source
# [37] = biological target: T15, soluble HLA-B*1501; experiment: FP screen; remark: listed apart in the source
# [38] = biological target: T22, soluble HLA-A*3601 (human); experiment: FP screen
# T22 construct: Member of the panel of 53 single-specificity sHLA
# [39] = biological target: T17, soluble HLA-B*1512; experiment: FP screen; remark: listed apart in the source
# [40] = biological target: T23, soluble HLA-A*3402 (human); experiment: FP screen of 53 sHLA with FITC-peptide
# T23 construct: Member of the panel of 53 single-specificity sHLA
# [41] = biological target: T16, soluble HLA-A*0301; experiment: FP screen of 53 sHLA with FITC-peptide
# [42] = biological target: T2, soluble HLA-A*2301; experiment: FP screen of 53 sHLA with FITC-peptide
# [43] = biological target: T19, soluble HLA-A*2902; experiment: FP screen of 53 sHLA with FITC-peptide; remark: listed apart in the source
# [44] = biological target: T8, soluble HLA-A*2402; experiment: FP screen of 53 sHLA with FITC-peptide
# [45] = biological target: T10, soluble HLA-B*4501; experiment: FP screen of 53 sHLA with FITC-peptide
# [46] = biological target: T14, soluble HLA-A*6601; experiment: FP screen of 53 sHLA with FITC-peptide
# [47] = biological target: T15, soluble HLA-B*1501; experiment: FP screen of 53 sHLA with FITC-peptide
# [48] = biological target: T1, soluble HLA-B*4001; experiment: FP screen; remark: listed apart in the source
# [49] = biological target: T18, soluble HLA-A*0101; experiment: FP screen; remark: listed apart in the source
# [50] = biological target: T3, soluble HLA-A*6801 (sHLA-A*6801); experiment: FP screen; remark: listed apart in the source
# [51] = biological target: T4, soluble HLA-B*2705 (sHLA-B*2705); experiment: FP screen; remark: listed apart in the source
# [52] = biological target: T5, soluble HLA-A*6901 (sHLA-A*6901); experiment: FP screen; remark: listed apart in the source
# [53] = biological target: T6, soluble HLA-B*1801; experiment: FP screen; remark: listed apart in the source
# [54] = biological target: T7, soluble HLA-A*1102 (sHLA-A*1102); experiment: FP screen; remark: listed apart in the source
# [55] = biological target: T9, soluble HLA-A*3002; experiment: FP screen; remark: listed apart in the source
# [56] = biological target: T20, soluble HLA-A*2601; experiment: FP screen; remark: listed apart in the source
# [57] = biological target: T23, soluble HLA-A*3402; experiment: FP screen
# [58] = biological target: T21, soluble HLA-A*4301 (sHLA-A*4301); experiment: FP screen; remark: listed apart in the source
# [59] = biological target: T11, soluble HLA-B*1302; experiment: FP screen; remark: listed apart in the source
# [60] = biological target: T12, soluble HLA-B*4402; experiment: FP screen; remark: listed apart in the source
# [61] = biological target: soluble HLA-A*0201 (sHLA-A*0201) (human); experiment: FP screen; remark: listed apart in the source
# [62] = biological target: T13, soluble HLA-B*4002; experiment: FP screen; remark: listed apart in the source
# [63] = biological target: T16, soluble HLA-A*0301; experiment: FP screen; remark: listed apart in the source
# [64] = biological target: T22, soluble HLA-A*3601; experiment: FP screen; remark: listed apart in the source
# [65] = biological target: T17, soluble HLA-B*1512; experiment: FP screen; remark: listed apart in the source
binder,measurement,setting,value
"YLEPAKAKY (also: FITC-labeled, position not given here) [YLEPAKAKY, FITC-labeled A1-like peptide]",binding result,[1],no binding (tested: 100 ug/ml sHLA)
same,binding result,[2],no binding (tested: 100 ug/ml sHLA)
same,binding result,[3],no binding (tested: 100 ug/ml sHLA)
same,binding result,[4],no binding (tested: 100 ug/ml sHLA)
same,binding result,[5],no binding (tested: 100 ug/ml sHLA)
same,binding result,[6],no binding (tested: 100 ug/ml sHLA)
same,binding result,[7],no binding (tested: 100 ug/ml sHLA)
same,binding result,[8],no binding (tested: 100 ug/ml sHLA)
same,binding result,[9],no binding (tested: 100 ug/ml sHLA)
same,binding result,[10],no binding (tested: 100 ug/ml sHLA)
same,binding result,[11],no binding (tested: 100 ug/ml sHLA)
same,binding result,[12],no binding (tested: 100 ug/ml sHLA)
same,binding result,[13],no binding (tested: 100 ug/ml sHLA)
same,binding result,[14],no binding (tested: 100 ug/ml sHLA)
same,binding result,[15],no binding (tested: 100 ug/ml sHLA)
same,binding result,[16],no binding (tested: 100 ug/ml sHLA)
same,binding result,[17],no binding (tested: 100 ug/ml sHLA)
same,binding result,[18],no binding (tested: 100 ug/ml sHLA)
same,binding result,[19],binds
same,binding result,[20],binds
"KVFPKALINK (also: FITC-labeled, position not given here) [KVFPKALINK, FITC-labeled A3-like peptide]",binding result,[21],no binding (tested: 100 ug/ml sHLA)
same,binding result,[22],no binding (tested: 100 ug/ml sHLA)
same,binding result,[23],no binding (tested: 100 ug/ml sHLA)
same,binding result,[24],no binding (tested: 100 ug/ml sHLA)
same,binding result,[25],no binding (tested: 100 ug/ml sHLA)
same,binding result,[26],no binding (tested: 100 ug/ml sHLA)
same,binding result,[27],no binding (tested: 100 ug/ml sHLA)
same,binding result,[28],no binding (tested: 100 ug/ml sHLA)
same,binding result,[29],no binding (tested: 100 ug/ml sHLA)
same,binding result,[30],no binding (tested: 100 ug/ml sHLA)
same,binding result,[31],no binding (tested: 100 ug/ml sHLA)
same,binding result,[32],no binding (tested: 100 ug/ml sHLA)
same,binding result,[33],no binding (tested: 100 ug/ml sHLA)
same,binding result,[34],no binding (tested: 100 ug/ml sHLA)
same,binding result,[35],no binding (tested: 100 ug/ml sHLA)
same,binding result,[36],no binding (tested: 100 ug/ml sHLA)
same,binding result,[37],no binding (tested: 100 ug/ml sHLA)
same,binding result,[38],no binding (tested: 100 ug/ml sHLA)
same,binding result,[39],no binding (tested: 100 ug/ml sHLA)
same,binding result,[40],binds
same,binding result,[41],binds
"QYSWFKNGTF (not fully specified; also: FITC-labeled, position not given here) [QYSWFKNGTF, FITC-labeled A24-like peptide]",binding result,[42],binds
same,binding result,[43],binds
same,binding result,[44],binds
same,binding result,[45],binds
same,binding result,[46],binds
same,binding result,[47],binds
same,binding result,[48],no binding (tested: 100 ug/ml sHLA)
same,binding result,[49],no binding (tested: 100 ug/ml sHLA)
same,binding result,[50],no binding (tested: 100 ug/ml sHLA)
same,binding result,[51],no binding (tested: 100 ug/ml sHLA)
same,binding result,[52],no binding (tested: 100 ug/ml sHLA)
same,binding result,[53],no binding (tested: 100 ug/ml sHLA)
same,binding result,[54],no binding (tested: 100 ug/ml sHLA)
same,binding result,[55],no binding (tested: 100 ug/ml sHLA)
same,binding result,[56],no binding (tested: 100 ug/ml sHLA)
same,binding result,[57],no binding (tested: 100 ug/ml sHLA)
same,binding result,[58],no binding (tested: 100 ug/ml sHLA)
same,binding result,[59],no binding (tested: 100 ug/ml sHLA)
same,binding result,[60],no binding (tested: 100 ug/ml sHLA)
same,binding result,[61],no binding (tested: 100 ug/ml sHLA)
same,binding result,[62],no binding (tested: 100 ug/ml sHLA)
same,binding result,[63],no binding (tested: 100 ug/ml sHLA)
same,binding result,[64],no binding (tested: 100 ug/ml sHLA)
same,binding result,[65],no binding (tested: 100 ug/ml sHLA)
